The target in test [1] is FHR4/VHH(T) trifunctional heteromultimer, Clone IA3 (third single-cell sorting) (human). The experiment in a line: SPR; Biacore 3000, CM5 chip; 10 000 RU of purified multimer immobilised by amine coupling; C3b 2.5, 5, 10 and 20 µg/mL injected in HBS-EP (10 mM Hepes pH 7.4, 150 mM NaCl, 3 mM EDTA, 0.05% P20) with 20 mM MgCl2, 5 min at 30 µL/min, 5 min dissociation; 1:1 Langmuir fit. Background: SPR reads the build-up and loss of mass on a sensor chip optically.

The target in test [2] is FHR4/VHH(T) trifunctional heteromultimer, Clone 2E3 (first single-cell sorting) (human) (UniProt P04003). Described as above.
Sequence of UniProt P04003 (P04003 whole entry, looked up, one chain of several): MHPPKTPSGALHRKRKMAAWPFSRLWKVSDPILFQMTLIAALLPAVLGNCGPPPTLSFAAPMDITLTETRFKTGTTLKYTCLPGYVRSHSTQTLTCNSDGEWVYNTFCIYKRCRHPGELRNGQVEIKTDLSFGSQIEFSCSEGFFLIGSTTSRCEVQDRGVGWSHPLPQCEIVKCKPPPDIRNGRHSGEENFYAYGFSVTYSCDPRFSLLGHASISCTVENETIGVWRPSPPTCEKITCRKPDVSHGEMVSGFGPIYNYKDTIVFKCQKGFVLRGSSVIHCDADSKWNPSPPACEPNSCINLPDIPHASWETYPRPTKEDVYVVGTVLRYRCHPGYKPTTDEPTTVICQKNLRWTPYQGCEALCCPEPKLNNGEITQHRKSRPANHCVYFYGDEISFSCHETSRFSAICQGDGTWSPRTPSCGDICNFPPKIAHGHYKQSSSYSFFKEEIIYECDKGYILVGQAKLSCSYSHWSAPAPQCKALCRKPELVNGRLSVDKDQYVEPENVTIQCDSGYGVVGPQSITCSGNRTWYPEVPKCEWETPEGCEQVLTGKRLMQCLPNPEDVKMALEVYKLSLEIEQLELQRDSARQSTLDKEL

pKd: −log10 of the molar value.

Usually pKd stands for the Kd on a negative log10 scale, so that one unit is a factor of ten. In test [1], “C3b (from UniProt P01024 749-1663; P01024 749-1663) (natural protein)” gave a Ka of 4.48e+06 M⁻¹, a negative logarithm of the Kd (pKd) of 6.65, a final C3b binding (RU) of 78.6 RU and a maximum C3b binding at 20 µg/mL C3b (RU) of 136 RU. In test [2], this substance gave a Ka of 3.65e+06 M⁻¹, a pKd of 6.56, a final C3b binding (RU) of 58 RU and a maximum C3b binding at 20 µg/mL C3b (RU) of 100 RU.

The record behind these values is PMC6887587.
